Assay results reported in patent US20260049151A1 (SHENGHE CHINA BIOPHARMACEUTICAL, published 2026).
Like-named read-outs stand apart in the source and are kept apart here.

What was measured:
Human-TNFR2-His [1] = molecular target: T1, Human-TNFR2-His (human, UniProt P20333 23-257); assay: BLI, antibody on AHC sensor, 100 nM TNFR2-His in solution
T1 construct: Bought protein; also called human TNFR2 protein; TNFR2 protein; not shown: His tag
T1 sequence (looked up): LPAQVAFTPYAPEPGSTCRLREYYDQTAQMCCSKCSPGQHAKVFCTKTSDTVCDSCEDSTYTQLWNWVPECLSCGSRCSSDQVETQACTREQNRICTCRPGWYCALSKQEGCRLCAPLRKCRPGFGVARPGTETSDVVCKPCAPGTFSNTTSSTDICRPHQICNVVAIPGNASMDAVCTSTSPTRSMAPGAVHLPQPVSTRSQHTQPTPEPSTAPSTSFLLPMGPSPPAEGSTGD
Experimental: The AHC sensor was soaked in 0.02% PBST (0.02% Tween 20, pH 7.4, 1×PBS) as a buffer for 600 s to remove the sucrose covering the sensor surface. The AHC sensor was equilibrated with 0.02% PBST (0.02% Tween 20, pH 7.4, 1×PBS) as a buffer for 60 s, the antibody in the sample plate was solidified for 300 s, and the secondary equilibration buffer was used for 180 s. 100 nM human-TNFR2-His (manufacturer: SINO, CAT: 10417-H08H, LOT: LC15NO0412) protein was bound to the antibody for 300 s and then dissociated for 600 s. After dissociation, 10 mM glycine (pH 2.0) was used as a regeneration buffer for 30 s. The sensor was regenerated with 10 mM glycine (pH 2.0).

Human-TNFR2-His [2] = molecular target: T1, Human-TNFR2-His; assay: ELISA: Human-TNFR2-His coated (0.1 ug/mL), antibody titrated, goat anti-human IgG Fc detection (Example 2)
Human-TNFR2-His [3] = molecular target: T1, Human-TNFR2-His; assay: as above; remark: listed apart in the source
Experimental: (§1) Human-TNFR2-His (manufacturer: SINO, CAT: 10417-H08H, LOT: LC15NO0412) was diluted to 0.1 μg/mL with a coating solution (1×PBS, pH7.4), and coated in 96-well ELISA plate at 100 µL/well overnight at 4° C. The coating solution was poured off. Each well was washed with 1×PBST at 300 μL, washed 4 times with a plate washer, and patted dry on a flat paper. It was blocked with 3% skim milk powder at 300 μL/well, and incubated at 37° C. for 1 h. The blocking solution was poured off, washed 4 times with a plate washer, and patted dry on a flat paper. Negative control and positive control were set up. […] The positive control and antibody were diluted to 10 μg/mL with 3% skim milk powder as the starting concentration, and then diluted by 3-fold gradient (11 gradients in total), and a blank well was set up and only the diluent was added. It was incubated at 37° C. for 1 h at 100 μL/well. The liquid in the well was discarded, washed 4 times with a plate washer, and patted dry on a flat paper. Goat anti-human IgG Fc was diluted with 3% skim milk powder at 1:10000, and incubated at 37° C. for 1 h at 100 μL/well. It was washed 6 times with a plate washer, and patted dry on a flat paper. TMB color developing solution was added at 100 μL/well, and wrapped with aluminum foil. Color development was performed at 37° C. in the dark for 8 min. Termination solution 1M HCl was added to terminate the color development reaction at 100 μL/well. Readings were taken at 450 nm on an ELISA reader.

Human-TNFR2-His [4] = molecular target: T1, Human-TNFR2-His; assay: as above; remark: listed apart in the source
Experimental: as §1

Human-TNFR2-His [5] = molecular target: T1, Human-TNFR2-His; assay: as above; remark: listed apart in the source
Experimental: as §1, with “Termination solution 1M HCl was added to terminate the color development reaction at 100 μL/well.” left out

Human 4-1BB His [6] = molecular target: T2, Human 4-1BB His (human, UniProt Q07011 24-186); assay: BLI, antibody on AHC sensor, 100 nM 4-1BB His in solution
T2 construct: Bought protein; lots 198-2146F1-W6 and 2407c-214FF1-YC; also called human 4-1BB protein; 4-1BB protein; not shown: His tag
T2 sequence (Q07011 24-186 limits assumed): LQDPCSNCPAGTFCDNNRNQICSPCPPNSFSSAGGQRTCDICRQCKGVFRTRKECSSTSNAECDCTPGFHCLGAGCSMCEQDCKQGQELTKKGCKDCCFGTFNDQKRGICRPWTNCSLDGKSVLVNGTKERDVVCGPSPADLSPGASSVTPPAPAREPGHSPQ
Excerpt: The variable region of the antibody sequence of the positive control consists of SEQ ID NO: 15 and SEQ ID NO: 19, with the addition of the constant region of human IgG1 (SEQ ID NO: 46 and SEQ ID NO: 47). The AHC sensor was soaked in 0.02% PBST (0.02% Tween 20, pH 7.4, 1× PBS) as a buffer for 600 s to remove the sucrose covering the sensor surface. The AHC sensor was equilibrated with 0.02% PBST (0.02% Tween 20, pH 7.4, 1× PBS) as a buffer for 60 s, the antibody in the sample plate was solidified for 300 s, and the secondary equilibration buffer was used for 180 s. 100 nM human 4-1BB His (manufacturer: Acro, CAT: 41B-H5258, LOT: 198-2146F1-W6) protein was bound to the antibody for 300 s and then dissociated for 600 s. After dissociation, 10 mM glycine (pH 2.0) was used as a regeneration buffer for 30 s. The sensor was regenerated with 10 mM glycine (pH 2.0).

Human 4-1BB His [7] = molecular target: T2, Human 4-1BB His; assay: ELISA: Human 4-1BB His coated (0.2 ug/mL), antibody titrated, goat anti-human IgG Fc detection (Example 3)
Experimental: (§2) Human 4-1BB His (manufacturer: Acro, CAT: 41B-H5258, LOT: 198-2146F1-W6) was diluted to 0.2 μg/mL with a coating solution (1×PBS, pH7.4), and coated in 96-well ELISA plate at 100 μL/well overnight at 4° C. The coating solution was poured off. Each well was washed with 1×PBST at 300 μL, washed 4 times with a plate washer, and patted dry on a flat paper. It was blocked with 3% skim milk powder at 300 μL/well, and incubated at 37° C. for 1 h. The blocking solution was poured off, washed 4 times with a plate washer, and patted dry on a flat paper. Negative control and positive control were set up. […] The variable region of the antibody sequence of the positive control consists of SEQ ID NO: 15 and SEQ ID NO: 19, with the addition of the constant region of human IgG1 (SEQ ID NO: 46 and SEQ ID NO: 47). The positive control and antibody were diluted to 10 μg/mL with 3% skim milk powder as the starting concentration, and then diluted by 3-fold gradient (11 gradients in total), and a blank well was set up and only the diluent was added. It was incubated at 37° C. for 1 h at 100 μL/well. The liquid in the well was discarded, washed 4 times with a plate washer, and patted dry on a flat paper. Goat anti-human IgG Fc was diluted with 3% skim milk powder at 1:20000, and incubated at 37° C. for 1 h at 100 μL/well. It was washed 6 times with a plate washer, and patted dry on a flat paper. TMB color developing solution was added at 100 μL/well, and wrapped with aluminum foil. Color development was performed at 37° C. in the dark for 8 min. Termination solution 1M HCl was added to terminate the color development reaction at 100 μL/well. Readings were taken at 450 nm on an ELISA reader.

Human 4-1BB His [8] = molecular target: T2, Human 4-1BB His; assay: as above; remark: listed apart in the source
Experimental: as §2

Human 4-1BB His [9] = molecular target: T2, Human 4-1BB His; assay: as above; remark: listed apart in the source
Experimental: as §2

Human 4-1BB His [10] = molecular target: T2, Human 4-1BB His; assay: as above; remark: listed apart in the source
Experimental: as §2

Human 4-1BB His [11] = molecular target: T2, Human 4-1BB His; assay: as above; remark: listed apart in the source
Experimental: as §2

Human 4-1BB His [12] = molecular target: T2, Human 4-1BB His; assay: as above; remark: listed apart in the source
Experimental: as §2, with “It was washed 6 times with a plate washer, and patted dry on a flat paper. TMB color developing solution was added at 100 μL/well, and wrapped with aluminum foil. Color development was performed at 37° C. in the dark for 8 min. Termination solution 1M HCl was added to terminate the color development reaction at 100 μL/well.” left out

B1: Positive control 2 (anti-TNFR2 VHH) (VHH)
VHH: EVQLVESGGGLVQPGGSLRLSCAASGSRLDYYAVAWFRQAPGKEREEVSCITYSGGSTNYAESVKGRFTISRDNSKNTLYLQMNSLRAEDTAVYYCTTEPYGSSCPLSGYDTWGQGTLVTVSS
**Q.** Which results are given for B1?
**A.** Kd (Human-TNFR2-His [1]): 1.61 nM; koff (Human-TNFR2-His [1]): 0.000427 s⁻¹; kon (Human-TNFR2-His [1]): 266000 M⁻¹ s⁻¹; EC50 (read off the curve) (Human-TNFR2-His [2]): ~0.04 nM; EC50 (read off the curve) (Human-TNFR2-His [3]): ~0.04 nM; EC50 (read off the curve) (Human-TNFR2-His [4]): 0.04 to 0.05 nM; EC50 (read off the curve) (Human-TNFR2-His [5]): 0.1 to 0.2 nM

B2: Positive control (anti-4-1BB antibody, human IgG1) (antibody, V domains shown)
VH: QVQLQESGPGLVKPSETLSLTCTVSGSSLTSYGVHWVRQPPGKGLEGLGVIWPGGSTNYNSALMSRVTISKDNSKSQVSLKMSSLTAADTAVYYCARVTGTWYFDVWGQGTTVTVSS
VL: DIQMTQSPSSLSASLGDRVTISCSASQGISNYLNWYQQKPDGTVKLLIYYTSTLHSGVPSRFSGSGSGTDYTLTISSLQPEDIATYYCQQYSKLPWTFGGGTKLEIK
notes: also called control antibody
**Q.** What does the source list for B2?
**A.** Kd (Human 4-1BB His [6]): 14.2 nM; koff (Human 4-1BB His [6]): 0.00553 s⁻¹; kon (Human 4-1BB His [6]): 391000 M⁻¹ s⁻¹; EC50 (read off the curve) (Human 4-1BB His [7]): ~0.05 nM; EC50 (read off the curve) (Human 4-1BB His [8]): ~0.05 nM; EC50 (read off the curve) (Human 4-1BB His [9]): ~0.05 nM; EC50 (read off the curve) (Human 4-1BB His [10]): ~0.05 nM; EC50 (read off the curve) (Human 4-1BB His [11]): ~0.1 nM; EC50 (read off the curve) (Human 4-1BB His [12]): ~0.07 nM
